Reference: US20220010021A1 (Sanofi, published 2022)
Where a chain is given by its changes, count along the chain named. Names and notes keep the numbering of the source. One block for each binder: values may come before it.

Tests used:
[1] = biological target: human FGFR1c/KLB receptor complex on primary human adipocytes (human, UniProt P11362 22-822; Q86Z14 1-1044); assay: cell-based or functional assay
[2] = biological target: cell surface receptor composed of FGFR1c and co-receptor beta-Klotho (KLB) on iLite FGF21 Assay Ready Cells (human, UniProt P11362 22-822; Q86Z14 1-1044); assay: cell-based or functional assay
Chain of cell surface receptor composed of FGFR1c and co-receptor beta-Klotho (KLB) on iLite FGF21 Assay Ready Cells (P11362 22-822, chain 1 of 2): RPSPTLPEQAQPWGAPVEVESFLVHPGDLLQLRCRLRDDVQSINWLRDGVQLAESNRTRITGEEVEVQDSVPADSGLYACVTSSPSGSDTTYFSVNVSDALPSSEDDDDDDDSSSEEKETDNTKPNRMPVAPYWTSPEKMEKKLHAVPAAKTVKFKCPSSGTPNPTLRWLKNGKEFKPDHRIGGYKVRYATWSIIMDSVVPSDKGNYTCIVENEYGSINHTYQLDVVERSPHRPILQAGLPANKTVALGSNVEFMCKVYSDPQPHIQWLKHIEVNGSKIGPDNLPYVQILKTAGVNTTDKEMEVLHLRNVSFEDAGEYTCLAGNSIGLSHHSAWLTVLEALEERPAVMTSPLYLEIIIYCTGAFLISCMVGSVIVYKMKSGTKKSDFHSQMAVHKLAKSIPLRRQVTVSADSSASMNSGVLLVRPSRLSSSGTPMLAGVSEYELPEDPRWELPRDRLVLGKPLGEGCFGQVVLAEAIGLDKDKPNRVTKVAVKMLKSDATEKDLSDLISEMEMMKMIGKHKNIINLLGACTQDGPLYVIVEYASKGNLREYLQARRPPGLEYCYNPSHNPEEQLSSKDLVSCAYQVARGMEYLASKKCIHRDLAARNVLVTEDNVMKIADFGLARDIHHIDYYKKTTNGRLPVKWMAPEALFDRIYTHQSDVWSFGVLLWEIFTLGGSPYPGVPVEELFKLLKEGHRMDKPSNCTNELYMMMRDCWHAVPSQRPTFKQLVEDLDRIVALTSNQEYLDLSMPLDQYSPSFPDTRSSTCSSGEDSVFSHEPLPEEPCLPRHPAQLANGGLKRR
Chain of cell surface receptor composed of FGFR1c and co-receptor beta-Klotho (KLB) on iLite FGF21 Assay Ready Cells (Q86Z14 whole entry, chain 2 of 2): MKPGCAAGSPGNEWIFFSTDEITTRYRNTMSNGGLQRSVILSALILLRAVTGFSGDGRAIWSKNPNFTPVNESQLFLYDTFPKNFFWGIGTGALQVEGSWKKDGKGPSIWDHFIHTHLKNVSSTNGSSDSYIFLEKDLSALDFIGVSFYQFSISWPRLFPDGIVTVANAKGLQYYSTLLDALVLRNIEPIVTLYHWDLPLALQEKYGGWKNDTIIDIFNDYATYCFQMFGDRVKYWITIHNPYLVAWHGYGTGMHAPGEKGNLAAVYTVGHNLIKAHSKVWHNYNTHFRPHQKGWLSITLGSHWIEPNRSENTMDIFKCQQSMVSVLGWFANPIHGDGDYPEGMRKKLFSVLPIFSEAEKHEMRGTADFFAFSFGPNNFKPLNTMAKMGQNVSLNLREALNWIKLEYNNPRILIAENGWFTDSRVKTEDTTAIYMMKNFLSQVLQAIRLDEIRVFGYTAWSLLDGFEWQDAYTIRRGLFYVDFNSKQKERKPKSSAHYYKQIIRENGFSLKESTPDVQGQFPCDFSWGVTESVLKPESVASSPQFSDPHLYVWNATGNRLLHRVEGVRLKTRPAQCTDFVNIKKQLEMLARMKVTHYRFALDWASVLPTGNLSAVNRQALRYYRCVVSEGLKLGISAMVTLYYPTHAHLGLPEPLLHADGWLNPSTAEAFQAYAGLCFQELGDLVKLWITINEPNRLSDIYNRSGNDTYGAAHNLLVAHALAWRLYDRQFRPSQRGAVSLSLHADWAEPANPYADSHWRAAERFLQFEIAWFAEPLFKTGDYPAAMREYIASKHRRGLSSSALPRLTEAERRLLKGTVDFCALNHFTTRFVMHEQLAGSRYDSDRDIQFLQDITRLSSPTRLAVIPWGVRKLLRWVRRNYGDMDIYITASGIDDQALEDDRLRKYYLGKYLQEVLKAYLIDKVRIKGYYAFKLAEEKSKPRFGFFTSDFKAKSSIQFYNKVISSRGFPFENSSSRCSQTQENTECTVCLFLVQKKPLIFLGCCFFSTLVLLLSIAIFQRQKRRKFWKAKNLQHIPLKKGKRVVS

[3] = biological target: cell-surface receptor complex of human FGFR1c and beta-Klotho (KLB) on iLite FGF21 reporter cells (human, UniProt P11362 22-822; Q86Z14 1-1044); assay: cell-based or functional assay
[4] = biological target: T1, human beta-Klotho (KLB) (human, UniProt Q86Z14 53-997); assay: BLI off-rate screening (Octet HTX), antibody from supernatant on anti-hIgG Fc capture sensors, KLB 5 nmol/L as analyte
T1 construct: the BLI off-rate screen was run with human and with monkey KLB; also called human KLB; ß-Klotho
T1 sequence (looked up): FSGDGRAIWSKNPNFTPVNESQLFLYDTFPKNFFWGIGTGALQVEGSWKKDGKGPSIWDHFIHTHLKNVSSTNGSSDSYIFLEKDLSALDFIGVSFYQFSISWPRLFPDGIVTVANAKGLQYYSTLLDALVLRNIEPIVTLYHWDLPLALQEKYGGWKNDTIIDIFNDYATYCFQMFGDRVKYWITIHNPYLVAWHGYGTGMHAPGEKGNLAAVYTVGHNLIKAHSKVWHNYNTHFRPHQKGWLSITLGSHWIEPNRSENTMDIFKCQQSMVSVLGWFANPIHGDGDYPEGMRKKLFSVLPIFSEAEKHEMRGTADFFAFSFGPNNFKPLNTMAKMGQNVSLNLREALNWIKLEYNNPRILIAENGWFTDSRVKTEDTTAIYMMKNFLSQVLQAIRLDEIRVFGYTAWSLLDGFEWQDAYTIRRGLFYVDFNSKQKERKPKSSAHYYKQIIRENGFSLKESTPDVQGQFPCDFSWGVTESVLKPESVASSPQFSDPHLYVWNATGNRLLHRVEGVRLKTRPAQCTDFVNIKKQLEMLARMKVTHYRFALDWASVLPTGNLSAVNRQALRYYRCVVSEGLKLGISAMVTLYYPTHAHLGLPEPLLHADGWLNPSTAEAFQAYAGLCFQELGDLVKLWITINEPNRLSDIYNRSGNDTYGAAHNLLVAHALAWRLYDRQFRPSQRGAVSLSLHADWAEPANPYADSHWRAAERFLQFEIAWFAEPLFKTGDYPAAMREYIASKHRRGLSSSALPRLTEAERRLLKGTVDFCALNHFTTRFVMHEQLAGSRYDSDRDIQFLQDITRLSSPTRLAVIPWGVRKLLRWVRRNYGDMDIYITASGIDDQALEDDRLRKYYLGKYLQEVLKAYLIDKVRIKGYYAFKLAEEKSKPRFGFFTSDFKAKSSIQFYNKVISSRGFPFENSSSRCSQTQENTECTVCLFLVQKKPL

[5] = biological target: cell surface receptor composed of the tyrosine kinase receptor FGFR1c and co-receptor beta-Klotho (KLB) (human, UniProt P11362 22-822; Q86Z14 1-1044); assay: cell-based or functional assay
Chain of cell surface receptor composed of the tyrosine kinase receptor FGFR1c and co-receptor beta-Klotho (KLB) (P11362 22-822, one chain of several): as the sequence (P11362 22-822, chain 1 of 2) above

[6] = biological target: T2, beta-Klotho (KLB) (Homo sapiens (Human), UniProt Q86Z14 1-996); assay: BLI (Octet) off-rate screening, mAb from supernatant on anti-hIgG Fc sensor, 5 nmol/L KLB;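 note: dissociation followed for 1800 s in D-PBS plus 0.1% BSA, antibody supernatants applied at 25 µg/mL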
T2 construct: also called β-Klotho; not shown: C-terminal His tag of the bought R&D Systems protein
T2 sequence: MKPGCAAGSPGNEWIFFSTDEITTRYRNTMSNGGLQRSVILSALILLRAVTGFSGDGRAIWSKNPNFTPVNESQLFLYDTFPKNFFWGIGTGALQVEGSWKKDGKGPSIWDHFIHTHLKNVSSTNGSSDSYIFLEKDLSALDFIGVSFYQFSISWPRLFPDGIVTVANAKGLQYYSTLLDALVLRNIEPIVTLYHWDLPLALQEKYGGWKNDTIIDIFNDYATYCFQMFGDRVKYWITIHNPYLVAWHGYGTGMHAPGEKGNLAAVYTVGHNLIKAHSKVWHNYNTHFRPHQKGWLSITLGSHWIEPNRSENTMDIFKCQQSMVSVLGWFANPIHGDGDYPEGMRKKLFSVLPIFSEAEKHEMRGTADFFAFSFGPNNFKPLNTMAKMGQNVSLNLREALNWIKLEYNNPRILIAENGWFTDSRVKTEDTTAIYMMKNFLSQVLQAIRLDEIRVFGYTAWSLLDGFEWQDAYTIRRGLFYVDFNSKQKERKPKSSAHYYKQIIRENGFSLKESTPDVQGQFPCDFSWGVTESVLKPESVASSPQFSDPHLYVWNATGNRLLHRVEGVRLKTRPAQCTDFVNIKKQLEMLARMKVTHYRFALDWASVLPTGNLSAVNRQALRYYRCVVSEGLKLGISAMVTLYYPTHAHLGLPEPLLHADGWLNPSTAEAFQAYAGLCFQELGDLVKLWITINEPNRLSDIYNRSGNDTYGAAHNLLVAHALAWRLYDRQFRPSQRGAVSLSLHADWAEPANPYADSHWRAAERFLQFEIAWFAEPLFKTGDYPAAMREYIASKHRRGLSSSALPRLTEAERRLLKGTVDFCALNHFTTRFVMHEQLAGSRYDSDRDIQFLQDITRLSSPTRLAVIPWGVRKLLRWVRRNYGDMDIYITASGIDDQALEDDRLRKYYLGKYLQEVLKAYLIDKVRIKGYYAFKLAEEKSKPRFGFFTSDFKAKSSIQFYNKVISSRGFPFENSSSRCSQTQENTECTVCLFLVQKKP

Chain of human FGFR1c/KLB receptor complex on primary human adipocytes (P11362 22-822, chain 1 of 2): as the sequence (P11362 22-822, chain 1 of 2) above
Chain of human FGFR1c/KLB receptor complex on primary human adipocytes (Q86Z14 whole entry, chain 2 of 2): as the sequence (Q86Z14 whole entry, chain 2 of 2) above

In-Cell Western pERK EC50, primary human adipocytes [1]: 0.206 nmol/L
B1: human FGF21 (ligand)
chain: GHPIPDSSPLLQFGGQVRQRYLYTDDAQQTEAHLEIREDGTVGGAADQSPESLLQLKALKPGVIQILGVKTSRFLCQRPDGALYGSLHFDPEACSFRELLLEDGYNVYQSEAHGLPLHLPGNKSPHRDPAPRGPARFLPLPGLPPAPPEPPGILAPQPPDVGSSDPLSMVGPSQGRSPSYAS

In-Cell Western pERK EC50, primary human adipocytes [1]: 0.101 nmol/L
B2: Ab0331 (antibody, human IgG4 S228P, lambda)
heavy: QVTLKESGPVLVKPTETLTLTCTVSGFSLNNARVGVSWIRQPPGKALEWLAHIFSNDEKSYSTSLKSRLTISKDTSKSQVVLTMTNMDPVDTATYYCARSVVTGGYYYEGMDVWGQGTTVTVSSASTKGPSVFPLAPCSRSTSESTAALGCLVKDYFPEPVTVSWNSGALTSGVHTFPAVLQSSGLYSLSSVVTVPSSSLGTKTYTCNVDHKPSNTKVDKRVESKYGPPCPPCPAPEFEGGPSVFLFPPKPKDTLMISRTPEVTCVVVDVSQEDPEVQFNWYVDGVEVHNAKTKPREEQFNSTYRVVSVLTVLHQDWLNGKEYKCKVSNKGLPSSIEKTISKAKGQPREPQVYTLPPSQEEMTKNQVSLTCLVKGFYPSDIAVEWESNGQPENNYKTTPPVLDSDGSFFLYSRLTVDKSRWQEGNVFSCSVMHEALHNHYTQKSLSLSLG
light: SYVLTQPPSVSVAPGQTARITCGGSNIGSESVHWYQQKPGQAPVLVVYSESDRPSGIPERFSGSNSGNTATLTISRVEAGDEADYYCQVWEGESDHVVFGGGTKLTVLGQPKANPTVTLFPPSSEELQANKATLVCLISDFYPGAVTVAWKADGSPVKAGVETTKPSKQSNNKYAASSYLSLTPEQWKSHRSYSCQVTHEGSTVEKTVAPTECS

In-Cell Western pERK EC50, primary human adipocytes [1]: 0.072 nmol/L
B3: Ab0428 (antibody, human IgG1, lambda)
heavy: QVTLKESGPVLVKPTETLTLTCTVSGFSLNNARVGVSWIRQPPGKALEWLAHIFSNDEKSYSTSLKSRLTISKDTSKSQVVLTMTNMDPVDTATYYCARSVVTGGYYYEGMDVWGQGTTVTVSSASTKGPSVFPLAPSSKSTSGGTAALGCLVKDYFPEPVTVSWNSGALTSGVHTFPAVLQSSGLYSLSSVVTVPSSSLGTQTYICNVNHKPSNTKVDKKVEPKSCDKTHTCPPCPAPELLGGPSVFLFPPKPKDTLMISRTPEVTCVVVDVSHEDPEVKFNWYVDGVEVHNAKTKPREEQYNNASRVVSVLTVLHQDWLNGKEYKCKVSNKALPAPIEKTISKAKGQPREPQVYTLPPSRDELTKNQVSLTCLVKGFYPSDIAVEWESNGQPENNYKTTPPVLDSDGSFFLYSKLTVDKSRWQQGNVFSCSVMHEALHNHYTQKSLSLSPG
light: B2 light

In-Cell Western pERK EC50, primary human adipocytes [1]: 0.142 nmol/L
B4: Ab0335 (antibody, human IgG4 S228P, lambda)
heavy: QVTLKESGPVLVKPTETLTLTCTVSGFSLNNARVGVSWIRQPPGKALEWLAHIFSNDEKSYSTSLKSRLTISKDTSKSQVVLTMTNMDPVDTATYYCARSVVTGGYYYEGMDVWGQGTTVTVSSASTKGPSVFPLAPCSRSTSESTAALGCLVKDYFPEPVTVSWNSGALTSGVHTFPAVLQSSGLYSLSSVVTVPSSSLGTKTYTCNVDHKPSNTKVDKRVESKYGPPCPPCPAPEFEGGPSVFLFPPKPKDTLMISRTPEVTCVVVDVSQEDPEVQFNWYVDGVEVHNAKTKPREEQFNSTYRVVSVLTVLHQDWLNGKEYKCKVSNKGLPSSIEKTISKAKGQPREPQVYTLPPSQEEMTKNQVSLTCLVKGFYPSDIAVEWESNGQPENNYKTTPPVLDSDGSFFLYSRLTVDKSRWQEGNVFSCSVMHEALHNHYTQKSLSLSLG
light: B2 light with E50A

In-Cell Western pERK EC50, primary human adipocytes [1]: 0.156 nmol/L
B5: Ab0351 (antibody, human IgG4 S228P, lambda)
heavy: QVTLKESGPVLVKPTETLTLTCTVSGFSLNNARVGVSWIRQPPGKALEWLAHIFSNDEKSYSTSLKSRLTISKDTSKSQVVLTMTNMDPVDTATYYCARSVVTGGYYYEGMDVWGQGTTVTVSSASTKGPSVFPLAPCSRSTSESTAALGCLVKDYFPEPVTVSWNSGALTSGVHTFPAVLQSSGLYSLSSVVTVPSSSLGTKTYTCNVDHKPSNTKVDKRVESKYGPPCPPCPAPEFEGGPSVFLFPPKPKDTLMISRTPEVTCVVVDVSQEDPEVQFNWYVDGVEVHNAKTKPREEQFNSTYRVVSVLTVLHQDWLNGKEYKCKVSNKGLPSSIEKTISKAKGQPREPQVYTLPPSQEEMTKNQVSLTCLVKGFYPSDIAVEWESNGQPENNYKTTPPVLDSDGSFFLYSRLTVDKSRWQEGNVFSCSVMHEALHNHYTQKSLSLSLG
light: B2 light with S49E

Mean E max [2]: 104%
B6: 16H7 variant with light chain substitution Q88S (antibody, V domains shown)
VH: not shown
VL: SYVLTQPPSVSVAPGQTARITCGGNNIGSESVHWYQQKPGQAPVLVVYDDSDRPSGIPERFSGSNSGNTATLTISRVEAGDEADYYCSVWDGNSDHVVFGGGTKLTVLG

Mean E max (%), Luciferase gene reporter assay [3]: 107%
Mean EC50 (nM), Luciferase gene reporter assay [3]: 0.094 nM
koff [4]: 3.9e-05 s⁻¹
B7: 16H7 variant with single point mutation V98S in the light chain (antibody, V domains shown)
VH: not shown
VL: B6 VL with S88Q, V98S
notes: Tested from HEK293-F supernatant

Mean E max (%), Luciferase gene reporter assay [3]: 100%
Mean EC50 (nM), Luciferase gene reporter assay [3]: 0.109 nM
koff [4]: 5.9e-05 s⁻¹
B8: 16H7 variant with single point mutation V98Y in the light chain (antibody, V domains shown)
VH: not shown
VL: B6 VL with S88Q, V98Y
notes: as for B7

Mean E max (%), Luciferase gene reporter assay [3]: 99%
Mean EC50 (nM), Luciferase gene reporter assay [3]: 0.139 nM
koff [4]: 4.6e-05 s⁻¹
B9: 16H7 variant with single point mutation V98A in the light chain (antibody, V domains shown)
VH: not shown
VL: B6 VL with S88Q, V98A
notes: as for B7

Mean E max (%), Luciferase gene reporter assay [3]: 105%
Mean EC50 (nM), Luciferase gene reporter assay [3]: 0.121 nM
koff [4]: 0.00013 s⁻¹
B10: 16H7 variant with single point mutation V98L in the light chain (antibody, V domains shown)
VH: not shown
VL: B6 VL with S88Q, V98L
notes: as for B7

Mean E max (%), Luciferase gene reporter assay [3]: 99%
Mean EC50 (nM), Luciferase gene reporter assay [3]: 0.099 nM
koff [4]: 5.6e-05 s⁻¹
B11: 16H7 variant with single point mutation V98W in the light chain (antibody, V domains shown)
VH: not shown
VL: B6 VL with S88Q, V98W
notes: as for B7

Mean E max, Luciferase gene reporter assay [5]: 99%
Mean EC50, Luciferase gene reporter assay [5]: 0.142 nM
koff [6]: 0.0001 s⁻¹
B12: 16H7 variant with light chain substitution V97T (antibody, human IgG4 S228P, lambda, V domains shown)
VH: not shown
VL: B6 VL with S88Q, V97T
notes: IgG4 backbone was used

Mean E max, Luciferase gene reporter assay [5]: 102%
Mean EC50, Luciferase gene reporter assay [5]: 0.161 nM
koff [6]: 1.6e-05 s⁻¹
B13: 16H7 variant with light chain substitution V98F (antibody, human IgG4 S228P, lambda, V domains shown)
VH: not shown
VL: B6 VL with S88Q, V98F
notes: IgG4 backbone was used

Mean E max (%), Luciferase gene reporter assay [3]: 99%
Mean EC50 (nM), Luciferase gene reporter assay [3]: 0.099 nM
koff [4]: 0.00011 s⁻¹
B14: 16H7 variant with single point mutation V98R in the light chain (antibody, V domains shown)
VH: not shown
VL: B6 VL with S88Q, V98R
notes: as for B7

Mean E max (%), Luciferase gene reporter assay [3]: 111%
Mean EC50 (nM), Luciferase gene reporter assay [3]: 0.121 nM
koff [4]: 3.7e-05 s⁻¹
B15: 16H7 variant with single point mutation V98Q in the light chain (antibody, V domains shown)
VH: not shown
VL: B6 VL with S88Q, V98Q
notes: as for B7

Mean E max, Luciferase gene reporter assay [5]: 108%
Mean EC50, Luciferase gene reporter assay [5]: 0.114 nM
koff [6]: 7.2e-05 s⁻¹
B16: 16H7 variant with light chain substitution V98M (antibody, human IgG4 S228P, lambda, V domains shown)
VH: not shown
VL: B6 VL with S88Q, V98M
notes: IgG4 backbone was used

Mean E max, Luciferase gene reporter assay [5]: 100%
Mean EC50, Luciferase gene reporter assay [5]: 0.105 nM
koff [6]: 6.4e-05 s⁻¹
B17: 16H7 variant with light chain substitution V98C (antibody, human IgG4 S228P, lambda, V domains shown)
VH: not shown
VL: B6 VL with S88Q, V98C
notes: IgG4 backbone was used

Mean E max, Luciferase gene reporter assay [5]: 89%
Mean EC50, Luciferase gene reporter assay [5]: 0.131 nM
koff [6]: 7.3e-05 s⁻¹
B18: 16H7 variant with light chain substitution V98P (antibody, human IgG4 S228P, lambda, V domains shown)
VH: not shown
VL: B6 VL with S88Q, V98P
notes: IgG4 backbone was used

Mean E max, Luciferase gene reporter assay [5]: 116%
Mean EC50, Luciferase gene reporter assay [5]: 0.105 nM
koff [6]: 3.3e-05 s⁻¹
B19: 16H7 variant with light chain substitution V98I (antibody, human IgG4 S228P, lambda, V domains shown)
VH: not shown
VL: B6 VL with S88Q, V98I
notes: IgG4 backbone was used

Mean E max (%), Luciferase gene reporter assay [3]: 103%
Mean EC50 (nM), Luciferase gene reporter assay [3]: 0.107 nM
koff [4]: 1.8e-05 s⁻¹
B20: 16H7 variant with single point mutation V98H in the light chain (antibody, V domains shown)
VH: not shown
VL: B6 VL with S88Q, V98H
notes: as for B7

Mean E max, Luciferase gene reporter assay [5]: 112%
Mean EC50, Luciferase gene reporter assay [5]: 0.111 nM
koff [6]: 2.1e-05 s⁻¹
B21: 16H7 variant with light chain substitution V98N (antibody, human IgG4 S228P, lambda, V domains shown)
VH: not shown
VL: B6 VL with S88Q, V98N
notes: IgG4 backbone was used

Mean E max (%), Luciferase gene reporter assay [3]: 99%
Mean EC50 (nM), Luciferase gene reporter assay [3]: 0.088 nM
koff [4]: 3.1e-05 s⁻¹
B22: 16H7 variant with single point mutation V98T in the light chain (antibody, V domains shown)
VH: not shown
VL: B6 VL with S88Q, V98T
notes: as for B7

Mean E max, Luciferase gene reporter assay [5]: 111%
Mean EC50, Luciferase gene reporter assay [5]: 0.121 nM
koff [6]: 3.7e-05 s⁻¹
B23: 16H7 variant with light chain substitution V98Q (antibody, human IgG4 S228P, lambda, V domains shown)
VH: not shown
VL: B6 VL with S88Q, V98Q
notes: IgG4 backbone was used

Mean E max (%), Luciferase gene reporter assay [3]: 106%
Mean EC50 (nM), Luciferase gene reporter assay [3]: 0.111 nM
koff [4]: 9e-05 s⁻¹
B24: 16H7 variant with single point mutation V98K in the light chain (antibody, V domains shown)
VH: not shown
VL: B6 VL with S88Q, V98K
notes: as for B7

Mean E max (%), Luciferase gene reporter assay [3]: 105%
Mean EC50 (nM), Luciferase gene reporter assay [3]: 0.118 nM
koff [4]: 1.1e-05 s⁻¹
B25: 16H7 variant with single point mutation V98G in the light chain (antibody, V domains shown)
VH: not shown
VL: B6 VL with S88Q, V98G
notes: as for B7
